Data: article PMC4888458

Assays:
[1] = confocal microscopy of GFP–ALA2 in tobacco epidermal cells; details: glycan lost; control: untagged wild-type ALIS5 with GFP–ALA2
[2] = NBD-PS uptake in yeast, flow cytometry; details: glycan lost; control: wild-type ALIS5 with ALA2

B1: ALIS5: N181Q (protein)
parent chain: MSSTAASSTVGGGGSSEISGVKKTSKRPKYSRFTQQELPACKPILTPRWVILTFLVAGVVFIPLGVICLFASQGVVEIVDRYDTDCIPTSSRNNMVAYIQGEGDKICKRTITVTKAMKHPVYVYYQLENFYQNHRRYVKSRNDAQLRSPKEEHDVKTCAPEDNVGGEPIVPCGLVAWSLFNDTYSFSRNSQQLLVNKKGISWKSDRENKFGKNVFPKNFQKGAPIGGGTLNISKPLSEQEDLIVWMRTAALPTFRKLYGKIETDLHAGDTITVLLQNNYNTYSFNGQKKLVLSTTSWLGGRNDFLGIAYLTVGSICLFLAVTFAVLYLVKPRQLGDPSYLSWNRSAGGLQ
[1]
  localisation_or_trafficking: abolishes
[2]
  other: transport activity: abolishes

B2: ALIS5: N231Q/N181Q (protein)
parent chain: B1 parent chain
[1]
  localisation_or_trafficking: abolishes
[2]
  other: transport activity: abolishes
